Data: patent US20220125891

T1: human Regnase-1 of Example 15 (full length, GST tag cleaved off, BirA recognition sequence on the C-terminal side, biotinylated)
T1 sequence (Q5D1E8 1-599, looked up): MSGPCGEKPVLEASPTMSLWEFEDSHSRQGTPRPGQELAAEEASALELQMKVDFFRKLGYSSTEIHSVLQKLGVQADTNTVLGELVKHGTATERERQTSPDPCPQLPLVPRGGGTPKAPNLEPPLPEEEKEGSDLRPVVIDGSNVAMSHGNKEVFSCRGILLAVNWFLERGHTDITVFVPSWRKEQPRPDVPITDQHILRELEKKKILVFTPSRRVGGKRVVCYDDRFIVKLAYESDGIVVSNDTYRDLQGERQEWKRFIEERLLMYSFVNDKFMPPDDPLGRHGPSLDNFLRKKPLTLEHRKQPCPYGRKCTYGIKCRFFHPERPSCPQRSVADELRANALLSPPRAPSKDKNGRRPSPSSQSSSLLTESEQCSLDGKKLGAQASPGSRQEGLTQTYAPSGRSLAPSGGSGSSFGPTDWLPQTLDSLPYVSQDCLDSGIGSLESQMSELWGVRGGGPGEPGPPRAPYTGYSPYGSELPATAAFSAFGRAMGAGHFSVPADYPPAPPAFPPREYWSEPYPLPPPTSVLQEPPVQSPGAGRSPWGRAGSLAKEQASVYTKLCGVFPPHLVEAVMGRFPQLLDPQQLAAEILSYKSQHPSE

B1: IKKβ (manufactured by SignalChem) (protein)
chain: MSWSPSLTTQTCGAWEMKERLGTGGFGNVIRWHNQETGEQIAIKQCRQELSPRNRERWCLEIQIMRRLTHPNVVAARDVPEGMQNLAPNDLPLLAMEYCQGGDLRKYLNQFENCCGLREGAILTLLSDIASALRYLHENRIIHRDLKPENIVLQQGEQRLIHKIIDLGYAKELDQGSLCTSFVGTLQYLAPELLEQQKYTVTVDYWSFGTLAFECITGFRPFLPNWQPVQWHSKVRQKSEVDIVVSEDLNGTVKFSSSLPYPNNLNSVLAERLEKWLQLMLMWHPRQRGTDPTYGPNGCFKALDDILNLKLVHILNMVTGTIHTYPVTEDESLQSLKARIQQDTGIPEEDQELLQEAGLALIPDKPATQCISDGKLNEGHTLDMDLVFLFDNSKITYETQISPRPQPESVSCILQEPKRNLAFFQLRKVWGQVWHSIQTLKEDCNRLQQGQRAAMMNLLRNNSCLSKMKNSMASMSQQLKAKLDFFKTSIQIDLEKYSEQTEFGITSDKLLLAWREMEQAVELCGRENEVKLLVERMMALQTDIVDLQRSPMGRKQGGTLDDLEEQARELYRRLREKPRDQRTEGDSQEMVRLLLQAIQSFEKKVRVIYTQLSKTVVCKQKALELLPKVEEVVSLMNEDEKTVVRLQEKRQKELWNLLKIACSKVRGPVSGSPDSMNASRLSQPGQLMSQPSTASNSLPEPAKKSEELVAEAHNLCTLLENAIQDTVREQDQSFTALDWSWLQTEEEEHSCLEQAS
B2: TBK1 (manufactured by SignalChem) (protein)
chain: MQSTSNHLWLLSDILGQGATANVFRGRHKKTGDLFAIKVFNNISFLRPVDVQMREFEVLKKLNHKNIVKLFAIEEETTTRHKVLIMEFCPCGSLYTVLEEPSNAYGLPESEFLIVLRDVVGGMNHLRENGIVHRDIKPGNIMRVIGEDGQSVYKLTDFGAARELEDDEQFVSLYGTEEYLHPDMYERAVLRKDHQKKYGATVDLWSIGVTFYHAATGSLPFRPFEGPRRNKEVMYKIITGKPSGAISGVQKAENGPIDWSGDMPVSCSLSRGLQVLLTPVLANILEADQEKCWGFDQFFAETSDILHRMVIHVFSLQQMTAHKIYIHSYNTATIFHELVYKQTKIISSNQELIYEGRRLVLEPGRLAQHFPKTTEENPIFVVSREPLNTIGLIYEKISLPKVHPRYDLDGDASMAKAITGVVCYACRIASTLLLYQELMRKGIRWLIELIKDDYNETVHKKTEVVITLDFCIRNIEKTVKVYEKLMKINLEAAELGEISDIHTKLLRLSSSQGTIETSLQDIDSRLSPGGSLADAWAHQEGTHPKDRNVEKLQVLLNCMTEIYYQFKKDKAERRLAYNEEQIHKFDKQKLYYHATKAMTHFTDECVKKYEAFLNKSEEWIRKMLHLRKQLLSLTNQCFDIEEEVSKYQEYTNELQETLPQKMFTASSGIKHTMTPIYPSSNTLVEMTLGMKKLKEEMEGVVKELAENNHILERFGSLTMDGGLRNVDCL

Molecular target: T1, human Regnase-1 of Example 15 (full …)

| Protein | phosphorylation detected by Western blotting |
| --- | --- |
| B1 | it was confirmed that human Regnase-1 is phosphorylated by IKKβ and TBK1 |
| B2 | it was confirmed that human Regnase-1 is phosphorylated by IKKβ and TBK1 |
